Kd data for three molecules are collected here from publication PMC4227767, “Dye label interference with RNA modification reveals 5-fluorouridine as non-covalent inhibitor”.

For series [1], the target named is T1, TruB (tmTruB), tRNA pseudouridine-55 synthase (Thermotoga maritima, UniProt Q9WZW0 1-309).
T1 sequence: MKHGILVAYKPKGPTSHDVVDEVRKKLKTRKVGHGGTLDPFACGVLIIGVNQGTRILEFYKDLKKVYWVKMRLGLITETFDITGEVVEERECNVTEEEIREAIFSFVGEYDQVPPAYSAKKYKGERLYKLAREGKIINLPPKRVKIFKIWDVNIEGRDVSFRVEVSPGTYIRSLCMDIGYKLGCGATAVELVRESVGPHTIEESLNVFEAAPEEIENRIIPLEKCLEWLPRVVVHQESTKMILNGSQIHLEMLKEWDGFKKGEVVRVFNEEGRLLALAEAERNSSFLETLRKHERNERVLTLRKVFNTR
Nature of the series: fluorescence titration (spectral shifts, lifetime/anisotropy); average over three titration curves; 200 nM tRNA; 1x MST buffer (composition not in material); tRNA folded 4 min 75 C in water then cooled in buffer; MST at 25 C, 50 nM tRNA; fluorescence at 200 nM tRNA; SDS-PAGE complexes formed at 25 or 70 C. Particulars: protein: recombinant, tRNA fold.

Series [2] deals with T1, TruB (tmTruB), tRNA pseudouridine-55 …. Nature of the series: MST; one of three runs 1 month apart; unit cut off in the material (nM assumed); 1x MST buffer (composition not in material); tRNA folded 4 min 75 C in water then cooled in buffer; MST at 25 C, 50 nM tRNA; fluorescence at 200 nM tRNA; SDS-PAGE complexes formed at 25 or 70 C. Particulars: protein: recombinant; label: Cy5 at U33 (internal); tRNA fold.

B1: C49-5FU55-tRNA (Cy5 at C49) (structured_RNA)
RNA: GCGGAUUUAGCUCAGUUGGGAGAGCGCCAGACUGAAGAUCUGGAGGUCCUGUGUUCGAUCCACAGAAUUCGCACCA
modifications: 5-fluorouridine at position 55; 5-aminohexyl-3-acrylimido-deoxycytidine at C49
As to B1, the Kd in series [1] (label: Cy5 at C49 (internal)) was 124 nM.

B2: U33-5FU55-tRNA (Cy5 at U33) (structured_RNA)
RNA: GCGGAUUUAGCUCAGUUGGGAGAGCGCCAGACUGAAGAUCUGGAGGUCCUGUGUUCGAUCCACAGAAUUCGCACCA
modifications: 5-fluorouridine at position 55; 5-aminohexyl-3-acrylimido-uridine at U33
Turning to B2, the figures for the Kd in series [2] and in series [1] (label: Cy5 at U33 (internal)) were 37.3 nM and 3.7 nM, respectively.

B3: C49-U55-tRNA (Cy5 at C49) (structured_RNA)
RNA: GCGGAUUUAGCUCAGUUGGGAGAGCGCCAGACUGAAGAUCUGGAGGUCCUGUGUUCGAUCCACAGAAUUCGCACCA
modifications: 5-aminohexyl-3-acrylimido-deoxycytidine at C49
As to B3, the Kd in series [1] (label: Cy5 at C49 (internal)) turned out to be 226 nM.

As usually defined, the Kd is a measure of binding affinity in units of concentration.
